Laboratory results from US20250361274A1, “PEPTIDE AND PEPTIDE-CONTAINING AGENT” (PEPTIDREAM INC., priority 2022, published 2025).
Numbered stars: 1 amine (or outer) side, 2 acyl side, 3 side chain; on linkers, the order of the positions; unused ones are H or OH. Bridge positions count the residues as written; N and C are the ends. Square brackets hold non-standard residues; d marks the D form. Ends that are not written are not given here. F44thp = (S)-2-amino-3-[4-(tetrahydro-2H-pyran-4-yl)phenyl]propanoic acid, O=C([C@H](Cc1ccc(C2CCOCC2)cc1)N[*:1])[*:2]; F42Py = (S)-2-amino-3-[4-(pyridin-2-yl)phenyl]propanoic acid, O=C([C@H](Cc1ccc(-c2ccccn2)cc1)N[*:1])[*:2]; Hgn = (S)-2,6-diamino-6-oxohexanoic acid, NC(=O)CCC[C@H](N[*:1])C(=O)[*:2]; Phe(4-(4-pyridyl)) = N[C@@H](Cc1ccc(-c2ccncc2)cc1)C(=O)O; Phe(4-(3-Py)) = N[C@@H](Cc1ccc(-c2cccnc2)cc1)C(=O)O; 3Pal(6-Ph) = N[C@@H](Cc1ccc(-c2ccccc2)nc1)C(=O)O; Bip = N[C@@H](Cc1ccc(-c2ccccc2)cc1)C(=O)O; Ala(cPent) = N[C@@H](CC1CCCC1)C(=O)O; NMeF = CN[C@@H](Cc1ccccc1)C(=O)O; 3Pal = N[C@@H](Cc1cccnc1)C(=O)O; 4Pal = N[C@@H](Cc1ccncc1)C(=O)O; Aad = N[C@@H](CCCC(=O)O)C(=O)O; Cha = N[C@@H](CC1CCCCC1)C(=O)O; Ahp(2) = CCCCC[C@H](N)C(=O)O; Abu = CC[C@H](N)C(=O)O

Assays:
[1] = molecular target: T1, BMP4 (Homo sapiens, UniProt P12644); assay: BMP4 signal transduction inhibitory activity: SMAD1 phosphorylation by BMP4 stimulus, AlphaLISA SureFire, A549 cells; assay type: cell-based; conditions: SMAD1 phosphorylation, BMP4 0.2 nM; peptide conc. in assay 0.2, 2, 20 nM
T1 sequence (P12644 293-408): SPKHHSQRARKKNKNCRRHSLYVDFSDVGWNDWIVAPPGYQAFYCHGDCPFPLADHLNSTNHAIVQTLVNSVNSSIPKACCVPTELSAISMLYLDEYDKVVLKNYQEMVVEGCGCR

[2] = molecular target: T2, BMP7 (Homo sapiens, UniProt P18075); assay: BMP7 signal transduction inhibitory activity: SMAD1 phosphorylation by BMP7 stimulus, A549 cells; assay type: cell-based; conditions: SMAD1 phosphorylation, BMP7 10 nM; peptide conc. in assay 1, 10, 100 nM
T2 sequence (P18075 293-431): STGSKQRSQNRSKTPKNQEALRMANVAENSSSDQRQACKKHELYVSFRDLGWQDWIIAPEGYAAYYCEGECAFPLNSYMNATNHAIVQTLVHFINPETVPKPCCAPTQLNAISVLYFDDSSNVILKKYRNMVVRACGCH
Outline: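 Inhibition is read as reduced BMP7-driven SMAD1 phosphorylation in human A549 cells, with the BMP7 stimulus at 10 nM. Three-point peptide concentrations spanned 1–1,000 nM depending on the peptide series. Some peptides received eight-point, 1/3-ratio titrations from 100 nM or 1,000 nM, alongside a Noggin control.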

Substance	aLISA BMP4 (0.2 nM) % inh [1]	aLISA BMP7 (10 nM) % inh [2]
322 ([4Pal]G[NMeF]G[Bip]GDD[Cha]A[NMeF]LHCG-NH2) [compound 322]	ND (the inhibitory activity was less than 30% at the maximum concentration evaluated)	D (showed less than 30% of inhibitory activity in 10 nM-addition zone and showed 30% or more of inhibitory activity in 100 nM-addition zone)
323 ([3Pal]G[NMeF]G[Bip]GDD[Cha]A[NMeF]LHCG-NH2; not fully specified) [compound 323]	ND (the inhibitory activity was less than 30% at the maximum concentration evaluated)	D (showed less than 30% of inhibitory activity in 10 nM-addition zone and showed 30% or more of inhibitory activity in 100 nM-addition zone)
324 (FG[NMeF]GFGDD[Cha]A[NMeF]LHCG-NH2) [compound 324]	ND (the inhibitory activity was less than 30% at the maximum concentration evaluated)	D (showed less than 30% of inhibitory activity in 10 nM-addition zone and showed 30% or more of inhibitory activity in 100 nM-addition zone)
325 (FG[NMeF]G[Phe(4-(4-pyridyl))]GDD[Cha]A[NMeF]LHCG-NH2; not fully specified) [compound 325]	ND (the inhibitory activity was less than 30% at the maximum concentration evaluated)	D (showed less than 30% of inhibitory activity in 10 nM-addition zone and showed 30% or more of inhibitory activity in 100 nM-addition zone)
326 (FG[NMeF]G[Phe(4-(3-Py))]GDD[Cha]A[NMeF]LHCG-NH2; not fully specified) [compound 326]	ND (the inhibitory activity was less than 30% at the maximum concentration evaluated)	D (showed less than 30% of inhibitory activity in 10 nM-addition zone and showed 30% or more of inhibitory activity in 100 nM-addition zone)
327 (FG[NMeF]G[F42Py]GDD[Cha]A[NMeF]LHCG-NH2; not fully specified) [compound 327]	A (showed less than 30% of inhibitory activity in 2 nM-peptide-addition zone and showed 30% or more of inhibitory activity in 20 nM-addition zone)	D (showed less than 30% of inhibitory activity in 10 nM-addition zone and showed 30% or more of inhibitory activity in 100 nM-addition zone)
328 (FG[NMeF]G[3Pal(6-Ph)]GDD[Cha]A[NMeF]LHCG-NH2; not fully specified (N-terminus, bridges)) [compound 328]	ND (the inhibitory activity was less than 30% at the maximum concentration evaluated)	D (showed less than 30% of inhibitory activity in 10 nM-addition zone and showed 30% or more of inhibitory activity in 100 nM-addition zone)
329 (FG[NMeF]G[F44thp]GDD[Cha]A[NMeF]LHCG-NH2; not fully specified (N-terminus, bridges)) [compound 329]	ND (the inhibitory activity was less than 30% at the maximum concentration evaluated)	D (showed less than 30% of inhibitory activity in 10 nM-addition zone and showed 30% or more of inhibitory activity in 100 nM-addition zone)
330 (FG[NMeF][dA][Bip]GDD[Cha]A[NMeF]LHCG-NH2; not fully specified (N-terminus, bridges)) [compound 330]	ND (the inhibitory activity was less than 30% at the maximum concentration evaluated)	D (showed less than 30% of inhibitory activity in 10 nM-addition zone and showed 30% or more of inhibitory activity in 100 nM-addition zone)
331 (FG[NMeF][dS][Bip]GDD[Cha]A[NMeF]LHCG-NH2; not fully specified (N-terminus, bridges)) [compound 331]	ND (the inhibitory activity was less than 30% at the maximum concentration evaluated)	D (showed less than 30% of inhibitory activity in 10 nM-addition zone and showed 30% or more of inhibitory activity in 100 nM-addition zone)
332 (FG[NMeF]G[Bip]ADD[Cha]A[NMeF]LHCG-NH2; not fully specified (N-terminus, bridges)) [compound 332]	ND (the inhibitory activity was less than 30% at the maximum concentration evaluated)	D (showed less than 30% of inhibitory activity in 10 nM-addition zone and showed 30% or more of inhibitory activity in 100 nM-addition zone)
333 (FG[NMeF]G[Bip][dA]DD[Cha]A[NMeF]LHCG-NH2; not fully specified (N-terminus, bridges)) [compound 333]	ND (the inhibitory activity was less than 30% at the maximum concentration evaluated)	D (showed less than 30% of inhibitory activity in 10 nM-addition zone and showed 30% or more of inhibitory activity in 100 nM-addition zone)
334 (FG[NMeF]G[Bip]GND[Cha]A[NMeF]LHCG-NH2; not fully specified (N-terminus, bridges)) [compound 334]	ND (the inhibitory activity was less than 30% at the maximum concentration evaluated)	D (showed less than 30% of inhibitory activity in 10 nM-addition zone and showed 30% or more of inhibitory activity in 100 nM-addition zone)
335 (FG[NMeF]G[Bip]GDD[Ala(cPent)]A[NMeF]LHCG-NH2; not fully specified (N-terminus, bridges)) [compound 335]	ND (the inhibitory activity was less than 30% at the maximum concentration evaluated)	D (showed less than 30% of inhibitory activity in 10 nM-addition zone and showed 30% or more of inhibitory activity in 100 nM-addition zone)
336 (FG[NMeF]G[Bip]GDD[Cha]E[NMeF]LHCG-NH2; not fully specified (N-terminus, bridges)) [compound 336]	ND (the inhibitory activity was less than 30% at the maximum concentration evaluated)	D (showed less than 30% of inhibitory activity in 10 nM-addition zone and showed 30% or more of inhibitory activity in 100 nM-addition zone)
337 (FG[NMeF]G[Bip]GDD[Cha][Aad][NMeF]LHCG-NH2; not fully specified (N-terminus, bridges)) [compound 337]	ND (the inhibitory activity was less than 30% at the maximum concentration evaluated)	D (showed less than 30% of inhibitory activity in 10 nM-addition zone and showed 30% or more of inhibitory activity in 100 nM-addition zone)
338 ({CH2CO}-FG[NMeF]G[Bip]GDD[Cha][Ahp(2)][NMeF]LHCG-NH2; thioether N-14) [compound 338]	ND (the inhibitory activity was less than 30% at the maximum concentration evaluated)	D (showed less than 30% of inhibitory activity in 10 nM-addition zone and showed 30% or more of inhibitory activity in 100 nM-addition zone)
339 (FG[NMeF]G[Bip]GDD[Cha][Abu][NMeF]LHCG-NH2; not fully specified (N-terminus, bridges)) [compound 339]	ND (the inhibitory activity was less than 30% at the maximum concentration evaluated)	D (showed less than 30% of inhibitory activity in 10 nM-addition zone and showed 30% or more of inhibitory activity in 100 nM-addition zone)
340 (FG[NMeF]G[Bip]GDD[Cha]Q[NMeF]LHCG-NH2; not fully specified (N-terminus, bridges)) [compound 340]	ND (the inhibitory activity was less than 30% at the maximum concentration evaluated)	D (showed less than 30% of inhibitory activity in 10 nM-addition zone and showed 30% or more of inhibitory activity in 100 nM-addition zone)
341 (FG[NMeF]G[Bip]GDD[Cha]S[NMeF]LHCG-NH2; not fully specified (N-terminus, bridges)) [compound 341]	ND (the inhibitory activity was less than 30% at the maximum concentration evaluated)	D (showed less than 30% of inhibitory activity in 10 nM-addition zone and showed 30% or more of inhibitory activity in 100 nM-addition zone)
342 (FG[NMeF]G[Bip]GDD[Cha]T[NMeF]LHCG-NH2; not fully specified (N-terminus, bridges)) [compound 342]	ND (the inhibitory activity was less than 30% at the maximum concentration evaluated)	D (showed less than 30% of inhibitory activity in 10 nM-addition zone and showed 30% or more of inhibitory activity in 100 nM-addition zone)
343 (FG[NMeF]G[Bip]GDD[Cha][Hgn][NMeF]LHCG-NH2; not fully specified (N-terminus, bridges)) [compound 343]	ND (the inhibitory activity was less than 30% at the maximum concentration evaluated)	D (showed less than 30% of inhibitory activity in 10 nM-addition zone and showed 30% or more of inhibitory activity in 100 nM-addition zone)
344 (FG[NMeF]G[Bip]GDD[Cha]A[NMeF][Cha]HCG-NH2; not fully specified (N-terminus, bridges)) [compound 344]	A (showed less than 30% of inhibitory activity in 2 nM-peptide-addition zone and showed 30% or more of inhibitory activity in 20 nM-addition zone)	D (showed less than 30% of inhibitory activity in 10 nM-addition zone and showed 30% or more of inhibitory activity in 100 nM-addition zone)
